This note sets out measurements from US20240116985A1 (published 2024).

Starred links: 1 amine or outer side, 2 acyl side, 3 side chain; linkers in the order of their positions; H or OH if unused. Positions of bridges follow the written chain, without caps; N, C: chain ends. Non-standard residues stand in square brackets, D forms with d. Primed or numbered codes have the meaning given here. (CCpCO2H)TriAzDap = (S)-1-(1-(2-amino-2-carboxyethyl)-1H-1,2,3-triazol-4-yl)cyclopropane-1-carboxylic acid, O=C([C@H](Cn1cc(C2(C(=O)[*:3])CC2)nn1)N[*:1])[*:2]; PyrS2″ = (S)-3-amino-1-((pent-4-en-1-yloxy)carbonyl)pyrrolidine-3-carboxylic acid (stapling residue), C=CCCCOC(=O)N1CC[C@@](N[*:1])(C(=O)[*:2])C1; B5(16) = 2-amino-2-(pent-4-en-1-yl)hept-6-enoic acid = 2,2-bis(4-pentenyl)glycine (stitching residue), C=CCCCC(CCCC=C)(N[*:1])C(=O)[*:2]; B5(5) = 2,2-bis(4-pentenyl)glycine, 2-amino-2-(pent-4-en-1-yl)hept-6-enoic acid (stitching residue), C=CCCCC(CCCC=C)(N[*:1])C(=O)[*:2]; B5(3) = 2,2-bis(4-pentenyl)glycine (stitching residue), C=CCCCC(CCCC=C)(N[*:1])C(=O)[*:2]; Bta = N[C@@H](Cc1csc2ccccc12)C(=O)O; αAllylPro = C=CC[C@@]1(C(=O)O)CCCN1; tBuAla = CC(C)(C)C[C@H](N)C(=O)O; 3Thi = N[C@@H](Cc1ccsc1)C(=O)O; Cha = N[C@@H](CC1CCCCC1)C(=O)O; S8 = C=CCCCCCC[C@](C)(N)C(=O)O

Assay in all cases: cell-based or functional assay
The target of experiment [1] is T1, B-cat-Halo (beta-catenin HaloTag fusion expressed in HEK293 cells) (UniProt P35222 1-781).
T1 sequence (looked up): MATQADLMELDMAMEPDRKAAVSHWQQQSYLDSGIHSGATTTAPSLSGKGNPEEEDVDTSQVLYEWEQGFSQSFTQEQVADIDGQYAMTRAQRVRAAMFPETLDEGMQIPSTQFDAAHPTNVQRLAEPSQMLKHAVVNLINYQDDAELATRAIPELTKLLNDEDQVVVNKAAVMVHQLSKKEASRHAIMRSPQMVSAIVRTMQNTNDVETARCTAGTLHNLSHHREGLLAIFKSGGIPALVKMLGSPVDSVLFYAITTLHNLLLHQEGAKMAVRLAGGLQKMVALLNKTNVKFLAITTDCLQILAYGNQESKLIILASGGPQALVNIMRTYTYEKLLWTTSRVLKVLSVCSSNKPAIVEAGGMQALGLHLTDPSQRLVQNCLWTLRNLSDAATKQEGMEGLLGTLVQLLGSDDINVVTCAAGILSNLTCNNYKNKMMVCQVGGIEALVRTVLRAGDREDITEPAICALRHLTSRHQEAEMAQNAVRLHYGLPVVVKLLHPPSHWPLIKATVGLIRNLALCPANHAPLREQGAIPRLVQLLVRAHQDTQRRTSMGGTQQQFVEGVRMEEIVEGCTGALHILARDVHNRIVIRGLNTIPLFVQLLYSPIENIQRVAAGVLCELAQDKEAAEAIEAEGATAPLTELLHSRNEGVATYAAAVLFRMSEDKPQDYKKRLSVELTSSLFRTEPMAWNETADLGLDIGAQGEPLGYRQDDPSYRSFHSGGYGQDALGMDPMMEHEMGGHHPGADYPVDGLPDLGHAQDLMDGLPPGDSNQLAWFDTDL

Experiment [2] deals with T2, B-cat-Halo (beta-catenin HaloTag fusion expressed in HEK293 cells) (Homo sapiens (Human), UniProt P35222 1-781).
T2 sequence: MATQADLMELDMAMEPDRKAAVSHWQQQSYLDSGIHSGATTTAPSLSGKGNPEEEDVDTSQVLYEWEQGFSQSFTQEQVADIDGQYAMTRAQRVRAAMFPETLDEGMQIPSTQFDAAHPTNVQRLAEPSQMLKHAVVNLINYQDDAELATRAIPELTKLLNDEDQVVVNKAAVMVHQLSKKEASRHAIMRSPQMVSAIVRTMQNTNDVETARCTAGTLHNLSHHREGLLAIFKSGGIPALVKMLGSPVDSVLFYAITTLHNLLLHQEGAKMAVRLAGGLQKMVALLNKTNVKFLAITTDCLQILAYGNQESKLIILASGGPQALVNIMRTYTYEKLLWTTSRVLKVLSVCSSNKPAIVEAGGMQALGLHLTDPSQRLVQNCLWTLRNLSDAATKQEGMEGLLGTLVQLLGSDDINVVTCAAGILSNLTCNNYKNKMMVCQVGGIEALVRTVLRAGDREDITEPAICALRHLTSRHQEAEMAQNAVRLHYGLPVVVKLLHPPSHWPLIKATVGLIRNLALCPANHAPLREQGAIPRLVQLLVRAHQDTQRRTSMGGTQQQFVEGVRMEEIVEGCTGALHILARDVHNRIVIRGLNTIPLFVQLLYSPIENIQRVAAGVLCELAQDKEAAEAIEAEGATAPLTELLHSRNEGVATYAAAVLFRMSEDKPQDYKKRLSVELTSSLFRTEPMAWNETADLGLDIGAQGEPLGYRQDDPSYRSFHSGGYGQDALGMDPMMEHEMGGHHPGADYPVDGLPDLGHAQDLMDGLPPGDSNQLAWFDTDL

The target in experiment [3] is T3, beta-catenin in DLD1 TCF/LEF luciferase reporter cells (UniProt P35222 1-781).
T3 sequence (looked up): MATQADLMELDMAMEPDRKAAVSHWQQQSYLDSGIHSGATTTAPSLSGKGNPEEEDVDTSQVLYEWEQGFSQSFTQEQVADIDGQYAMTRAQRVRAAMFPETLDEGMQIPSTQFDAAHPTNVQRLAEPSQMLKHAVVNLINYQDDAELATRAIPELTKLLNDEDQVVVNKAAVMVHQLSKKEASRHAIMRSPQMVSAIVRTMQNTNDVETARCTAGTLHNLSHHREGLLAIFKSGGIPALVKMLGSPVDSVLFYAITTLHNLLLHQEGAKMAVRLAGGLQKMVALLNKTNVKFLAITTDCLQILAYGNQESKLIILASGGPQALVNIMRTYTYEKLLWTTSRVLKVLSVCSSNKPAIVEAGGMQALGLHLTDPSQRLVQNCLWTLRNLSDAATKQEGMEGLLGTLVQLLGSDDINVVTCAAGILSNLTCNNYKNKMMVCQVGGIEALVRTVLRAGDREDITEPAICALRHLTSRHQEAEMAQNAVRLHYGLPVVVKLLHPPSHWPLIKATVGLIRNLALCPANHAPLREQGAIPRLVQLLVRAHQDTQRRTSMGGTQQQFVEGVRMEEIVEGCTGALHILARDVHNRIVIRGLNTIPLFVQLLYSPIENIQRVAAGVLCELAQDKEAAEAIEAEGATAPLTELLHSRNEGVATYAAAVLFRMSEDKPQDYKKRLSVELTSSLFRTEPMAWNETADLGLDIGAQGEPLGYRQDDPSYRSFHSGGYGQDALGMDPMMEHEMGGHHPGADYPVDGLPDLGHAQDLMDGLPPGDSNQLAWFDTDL

Experiment [4] deals with T4, B-cat-Halo (beta-catenin HaloTag fusion expressed in HEK293 cells) (UniProt P35222 1-781).
T4 sequence (looked up): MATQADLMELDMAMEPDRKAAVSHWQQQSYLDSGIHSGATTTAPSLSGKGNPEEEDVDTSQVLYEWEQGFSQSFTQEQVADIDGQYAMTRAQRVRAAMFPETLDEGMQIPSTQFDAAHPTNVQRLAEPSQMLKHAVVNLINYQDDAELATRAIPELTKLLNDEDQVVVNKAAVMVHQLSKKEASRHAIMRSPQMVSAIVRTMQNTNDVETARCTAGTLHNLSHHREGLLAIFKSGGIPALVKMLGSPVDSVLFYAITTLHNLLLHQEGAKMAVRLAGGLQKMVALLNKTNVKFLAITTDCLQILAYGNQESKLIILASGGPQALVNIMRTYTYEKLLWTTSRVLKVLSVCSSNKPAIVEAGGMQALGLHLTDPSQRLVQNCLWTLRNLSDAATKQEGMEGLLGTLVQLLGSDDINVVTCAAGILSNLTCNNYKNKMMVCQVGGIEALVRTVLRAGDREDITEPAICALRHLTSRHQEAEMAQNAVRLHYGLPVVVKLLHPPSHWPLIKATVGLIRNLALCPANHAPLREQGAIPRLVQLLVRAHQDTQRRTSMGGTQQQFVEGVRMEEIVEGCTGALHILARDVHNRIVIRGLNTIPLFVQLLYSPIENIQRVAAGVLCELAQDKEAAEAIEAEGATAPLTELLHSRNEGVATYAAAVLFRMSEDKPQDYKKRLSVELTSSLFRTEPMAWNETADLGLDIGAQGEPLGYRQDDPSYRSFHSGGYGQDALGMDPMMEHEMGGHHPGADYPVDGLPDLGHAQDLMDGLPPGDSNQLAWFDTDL
This is another data set of the same source.

For experiment [5], the target named is T5, beta-catenin in DLD1 TCF/LEF luciferase reporter cells (UniProt P35222 1-781).
T5 sequence (looked up): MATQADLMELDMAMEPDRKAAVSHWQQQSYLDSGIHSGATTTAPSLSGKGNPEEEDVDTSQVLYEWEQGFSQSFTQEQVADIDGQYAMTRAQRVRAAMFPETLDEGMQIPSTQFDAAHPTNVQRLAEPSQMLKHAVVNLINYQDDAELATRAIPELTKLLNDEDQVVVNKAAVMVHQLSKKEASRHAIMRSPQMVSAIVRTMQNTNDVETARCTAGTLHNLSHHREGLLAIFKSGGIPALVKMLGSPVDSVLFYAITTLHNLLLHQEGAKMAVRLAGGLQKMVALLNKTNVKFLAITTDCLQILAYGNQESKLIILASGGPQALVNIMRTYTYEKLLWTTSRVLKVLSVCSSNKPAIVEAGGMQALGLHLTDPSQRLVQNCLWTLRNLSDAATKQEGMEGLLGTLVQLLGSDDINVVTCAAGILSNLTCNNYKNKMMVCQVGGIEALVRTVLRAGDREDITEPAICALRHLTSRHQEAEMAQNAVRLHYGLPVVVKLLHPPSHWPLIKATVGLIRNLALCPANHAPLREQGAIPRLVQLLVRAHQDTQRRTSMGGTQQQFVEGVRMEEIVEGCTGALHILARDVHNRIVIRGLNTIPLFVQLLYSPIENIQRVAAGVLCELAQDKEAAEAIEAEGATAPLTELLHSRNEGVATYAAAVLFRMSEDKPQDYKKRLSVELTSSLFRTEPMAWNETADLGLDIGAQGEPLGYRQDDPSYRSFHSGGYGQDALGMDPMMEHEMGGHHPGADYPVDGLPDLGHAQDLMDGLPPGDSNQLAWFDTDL
The source holds these as a separate data set.

As for Ac-[αAllylPro]D[Cha][B5(16)]DEAAFN[S8]F[Bta]Q-NH2 (staple 1-4, 4-11; also: later-eluting staple isomer composition) [I-620, listing 1 of 2 here], the “NanoBRET IC50” value in experiment [1] was 5.8 µM.

B1: I-2445 (peptide)
peptide: Ac-[αAllylPro]D[tBuAla][B5(5)]D[(CCpCO2H)TriAzDap]AAFL[PyrS2″][3Thi][Bta]Q-NH2
modifications: staple 1-4, 4-11; not fully specified; printed as Ac-PL3-Asp-Npg-B5-Asp-[CCpCO2H]TriAzDap-Ala-Ala-Phe-Leu-PyrS2-3Thi-BztA-Gln-NH2
As to B1, in experiment [2], the “NanoBRET Abs IC50” value amounted to 17.1 µM. The “DLD1 4% Abs IC50” value in experiment [3] was 9.5 µM. Regarding Ac-[αAllylPro]D[Cha][B5(16)]DEAAFN[S8]F[Bta]Q-NH2 (staple 1-4, 4-11; also: later-eluting staple isomer composition) [I-620, listing 2 of 2 here], the “NanoBRET Abs IC50” value in experiment [4] came out at 12 µM.

For Ac-[αAllylPro]D[tBuAla][B5(3)]DDAAFF[PyrS2″][3Thi][Bta]Q-NH2 (staple 1-4, 4-11) [I-807], the “DLD1 reporter assay Abs IC50” value in experiment [5] was determined as 3.4 µM.
